Values quoted from earlier work as cited in patent publication US10906951B2, “Modified natural killer cells and natural killer cell lines having increased cytotoxicity” (ONK THERAPEUTICS LIMITED, priority 2015, dated 2021).

B1: N199R: TRAIL DR4 variant, WO 2009/066174 (protein, UniProt P50591 1-281, looked up, variant N199R)
Tumor necrosis factor ligand …: MAMMEVQGGPSLGQTCVLIVIFTVLLQSLCVAVTYVYFTNELKQMQDKYSKSGIACFLKEDDSYWDPNDEESMNSPCWQVKWQLRQLVRKMILRTSEETISTVQEKQQNISPLVRERGPQRVAAHITGTRGRSNTLSSPNSKNEKALGRKINSWESSRSGHSFLSNLHLRNGELVIHEKGFYYIYSQTYFRFQEEIKERTKNDKQMVQYIYKYTSYPDPILLMKSARNSCWSKDAEYGLYSIYQGGIFELKENDRIFVSVTNEHLIDMDHEASFFGAFLVG
B2: N199H/K201R: TRAIL DR4 variant, WO 2009/066174 (protein, UniProt P50591 1-281, looked up, variant N199H K201R)
Tumor necrosis factor ligand …: MAMMEVQGGPSLGQTCVLIVIFTVLLQSLCVAVTYVYFTNELKQMQDKYSKSGIACFLKEDDSYWDPNDEESMNSPCWQVKWQLRQLVRKMILRTSEETISTVQEKQQNISPLVRERGPQRVAAHITGTRGRSNTLSSPNSKNEKALGRKINSWESSRSGHSFLSNLHLRNGELVIHEKGFYYIYSQTYFRFQEEIKEHTRNDKQMVQYIYKYTSYPDPILLMKSARNSCWSKDAEYGLYSIYQGGIFELKENDRIFVSVTNEHLIDMDHEASFFGAFLVG
B3: K204Y: TRAIL DR4 variant, WO 2009/066174 (protein, UniProt P50591 1-281, looked up, variant K204Y)
Tumor necrosis factor ligand …: MAMMEVQGGPSLGQTCVLIVIFTVLLQSLCVAVTYVYFTNELKQMQDKYSKSGIACFLKEDDSYWDPNDEESMNSPCWQVKWQLRQLVRKMILRTSEETISTVQEKQQNISPLVRERGPQRVAAHITGTRGRSNTLSSPNSKNEKALGRKINSWESSRSGHSFLSNLHLRNGELVIHEKGFYYIYSQTYFRFQEEIKENTKNDYQMVQYIYKYTSYPDPILLMKSARNSCWSKDAEYGLYSIYQGGIFELKENDRIFVSVTNEHLIDMDHEASFFGAFLVG
B4: K204E: TRAIL DR4 variant, WO 2009/066174 (protein, UniProt P50591 1-281, looked up, variant K204E)
Tumor necrosis factor ligand …: MAMMEVQGGPSLGQTCVLIVIFTVLLQSLCVAVTYVYFTNELKQMQDKYSKSGIACFLKEDDSYWDPNDEESMNSPCWQVKWQLRQLVRKMILRTSEETISTVQEKQQNISPLVRERGPQRVAAHITGTRGRSNTLSSPNSKNEKALGRKINSWESSRSGHSFLSNLHLRNGELVIHEKGFYYIYSQTYFRFQEEIKENTKNDEQMVQYIYKYTSYPDPILLMKSARNSCWSKDAEYGLYSIYQGGIFELKENDRIFVSVTNEHLIDMDHEASFFGAFLVG
B5: K204L: TRAIL DR4 variant, WO 2009/066174 (protein, UniProt P50591 1-281, looked up, variant K204L)
Tumor necrosis factor ligand …: MAMMEVQGGPSLGQTCVLIVIFTVLLQSLCVAVTYVYFTNELKQMQDKYSKSGIACFLKEDDSYWDPNDEESMNSPCWQVKWQLRQLVRKMILRTSEETISTVQEKQQNISPLVRERGPQRVAAHITGTRGRSNTLSSPNSKNEKALGRKINSWESSRSGHSFLSNLHLRNGELVIHEKGFYYIYSQTYFRFQEEIKENTKNDLQMVQYIYKYTSYPDPILLMKSARNSCWSKDAEYGLYSIYQGGIFELKENDRIFVSVTNEHLIDMDHEASFFGAFLVG
B6: K204D: TRAIL DR4 variant, WO 2009/066174 (protein, UniProt P50591 1-281, looked up, variant K204D)
Tumor necrosis factor ligand …: MAMMEVQGGPSLGQTCVLIVIFTVLLQSLCVAVTYVYFTNELKQMQDKYSKSGIACFLKEDDSYWDPNDEESMNSPCWQVKWQLRQLVRKMILRTSEETISTVQEKQQNISPLVRERGPQRVAAHITGTRGRSNTLSSPNSKNEKALGRKINSWESSRSGHSFLSNLHLRNGELVIHEKGFYYIYSQTYFRFQEEIKENTKNDDQMVQYIYKYTSYPDPILLMKSARNSCWSKDAEYGLYSIYQGGIFELKENDRIFVSVTNEHLIDMDHEASFFGAFLVG
B7: S215E: TRAIL DR4 variant, WO 2009/066174 (protein, UniProt P50591 1-281, looked up, variant S215E)
Tumor necrosis factor ligand …: MAMMEVQGGPSLGQTCVLIVIFTVLLQSLCVAVTYVYFTNELKQMQDKYSKSGIACFLKEDDSYWDPNDEESMNSPCWQVKWQLRQLVRKMILRTSEETISTVQEKQQNISPLVRERGPQRVAAHITGTRGRSNTLSSPNSKNEKALGRKINSWESSRSGHSFLSNLHLRNGELVIHEKGFYYIYSQTYFRFQEEIKENTKNDKQMVQYIYKYTEYPDPILLMKSARNSCWSKDAEYGLYSIYQGGIFELKENDRIFVSVTNEHLIDMDHEASFFGAFLVG
B8: K201R: TRAIL DR4 variant, WO 2009/066174 (protein, UniProt P50591 1-281, looked up, variant K201R)
Tumor necrosis factor ligand …: MAMMEVQGGPSLGQTCVLIVIFTVLLQSLCVAVTYVYFTNELKQMQDKYSKSGIACFLKEDDSYWDPNDEESMNSPCWQVKWQLRQLVRKMILRTSEETISTVQEKQQNISPLVRERGPQRVAAHITGTRGRSNTLSSPNSKNEKALGRKINSWESSRSGHSFLSNLHLRNGELVIHEKGFYYIYSQTYFRFQEEIKENTRNDKQMVQYIYKYTSYPDPILLMKSARNSCWSKDAEYGLYSIYQGGIFELKENDRIFVSVTNEHLIDMDHEASFFGAFLVG
B9: G131R/R149I/S159R/S215D: 4C9, a DR4-specific TRAIL variant; DNA sequence SEQ ID NO: 14 (protein, listed as Homo sapiens)
chain: MAMMEVQGGPSLGQTCVLIVIFTVLLQSLCVAVTYVYFTNELKQMQDKYSKSGIACFLKEDDSYWDPNDEESMNSPCWQVKWQLRQLVRKMILRTSEETISTVQEKQQNISPLVRERGPQRVAAHITGTRRRSNTLSSPNSKNEKALGIKINSWESSRRGHSFLSNLHLRNGELVIHEKGFYYIYSQTYFRFQEEIKENTKNDKQMVQYIYKYTDYPDPILLMKSARNSCWSKDAEYGLYSIYQGGIFELKENDRIFVSVTNEHLIDMDHEASFFGAFLVG
B10: K212R: TRAIL DR4 variant, WO 2009/066174 (protein, UniProt P50591 1-281, looked up, variant K212R)
Tumor necrosis factor ligand …: MAMMEVQGGPSLGQTCVLIVIFTVLLQSLCVAVTYVYFTNELKQMQDKYSKSGIACFLKEDDSYWDPNDEESMNSPCWQVKWQLRQLVRKMILRTSEETISTVQEKQQNISPLVRERGPQRVAAHITGTRGRSNTLSSPNSKNEKALGRKINSWESSRSGHSFLSNLHLRNGELVIHEKGFYYIYSQTYFRFQEEIKENTKNDKQMVQYIYRYTSYPDPILLMKSARNSCWSKDAEYGLYSIYQGGIFELKENDRIFVSVTNEHLIDMDHEASFFGAFLVG
B11: G131R/N199R/K201H/R149I/S159R/S215D: TRAIL DR4 variant, WO 2009/066174 (protein, UniProt P50591 1-281, looked up, variant G131R N199R K201H R149I S159R S215D)
Tumor necrosis factor ligand …: MAMMEVQGGPSLGQTCVLIVIFTVLLQSLCVAVTYVYFTNELKQMQDKYSKSGIACFLKEDDSYWDPNDEESMNSPCWQVKWQLRQLVRKMILRTSEETISTVQEKQQNISPLVRERGPQRVAAHITGTRRRSNTLSSPNSKNEKALGIKINSWESSRRGHSFLSNLHLRNGELVIHEKGFYYIYSQTYFRFQEEIKERTHNDKQMVQYIYKYTDYPDPILLMKSARNSCWSKDAEYGLYSIYQGGIFELKENDRIFVSVTNEHLIDMDHEASFFGAFLVG
B12: N199R/K201H: TRAIL DR4 variant, WO 2009/066174 (protein, UniProt P50591 1-281, looked up, variant N199R K201H)
Tumor necrosis factor ligand …: MAMMEVQGGPSLGQTCVLIVIFTVLLQSLCVAVTYVYFTNELKQMQDKYSKSGIACFLKEDDSYWDPNDEESMNSPCWQVKWQLRQLVRKMILRTSEETISTVQEKQQNISPLVRERGPQRVAAHITGTRGRSNTLSSPNSKNEKALGRKINSWESSRSGHSFLSNLHLRNGELVIHEKGFYYIYSQTYFRFQEEIKERTHNDKQMVQYIYKYTSYPDPILLMKSARNSCWSKDAEYGLYSIYQGGIFELKENDRIFVSVTNEHLIDMDHEASFFGAFLVG
B13: G131R/D218H: TRAIL DR4 variant, WO 2009/066174 (protein, UniProt P50591 1-281, looked up, variant G131R D218H)
Tumor necrosis factor ligand …: MAMMEVQGGPSLGQTCVLIVIFTVLLQSLCVAVTYVYFTNELKQMQDKYSKSGIACFLKEDDSYWDPNDEESMNSPCWQVKWQLRQLVRKMILRTSEETISTVQEKQQNISPLVRERGPQRVAAHITGTRRRSNTLSSPNSKNEKALGRKINSWESSRSGHSFLSNLHLRNGELVIHEKGFYYIYSQTYFRFQEEIKENTKNDKQMVQYIYKYTSYPHPILLMKSARNSCWSKDAEYGLYSIYQGGIFELKENDRIFVSVTNEHLIDMDHEASFFGAFLVG
B14: G131R: TRAIL DR4 variant, WO 2009/066174 (protein, UniProt P50591 1-281, looked up, variant G131R)
Tumor necrosis factor ligand …: MAMMEVQGGPSLGQTCVLIVIFTVLLQSLCVAVTYVYFTNELKQMQDKYSKSGIACFLKEDDSYWDPNDEESMNSPCWQVKWQLRQLVRKMILRTSEETISTVQEKQQNISPLVRERGPQRVAAHITGTRRRSNTLSSPNSKNEKALGRKINSWESSRSGHSFLSNLHLRNGELVIHEKGFYYIYSQTYFRFQEEIKENTKNDKQMVQYIYKYTSYPDPILLMKSARNSCWSKDAEYGLYSIYQGGIFELKENDRIFVSVTNEHLIDMDHEASFFGAFLVG
B15: G131R/N199R/K201H: TRAIL DR4 variant, WO 2009/066174 (protein, UniProt P50591 1-281, looked up, variant G131R N199R K201H)
Tumor necrosis factor ligand …: MAMMEVQGGPSLGQTCVLIVIFTVLLQSLCVAVTYVYFTNELKQMQDKYSKSGIACFLKEDDSYWDPNDEESMNSPCWQVKWQLRQLVRKMILRTSEETISTVQEKQQNISPLVRERGPQRVAAHITGTRRRSNTLSSPNSKNEKALGRKINSWESSRSGHSFLSNLHLRNGELVIHEKGFYYIYSQTYFRFQEEIKERTHNDKQMVQYIYKYTSYPDPILLMKSARNSCWSKDAEYGLYSIYQGGIFELKENDRIFVSVTNEHLIDMDHEASFFGAFLVG
B16: K201H: TRAIL DR4 variant, WO 2009/066174 (protein, UniProt P50591 1-281, looked up, variant K201H)
Tumor necrosis factor ligand …: MAMMEVQGGPSLGQTCVLIVIFTVLLQSLCVAVTYVYFTNELKQMQDKYSKSGIACFLKEDDSYWDPNDEESMNSPCWQVKWQLRQLVRKMILRTSEETISTVQEKQQNISPLVRERGPQRVAAHITGTRGRSNTLSSPNSKNEKALGRKINSWESSRSGHSFLSNLHLRNGELVIHEKGFYYIYSQTYFRFQEEIKENTHNDKQMVQYIYKYTSYPDPILLMKSARNSCWSKDAEYGLYSIYQGGIFELKENDRIFVSVTNEHLIDMDHEASFFGAFLVG

Target: DR4 (Homo sapiens, UniProt O00220)
Details: in words; known from WO 2009/066174, MacFarlane 2005; cited from earlier work

Affinity for DR4, increased affinity for DR4:
B1, B2, B3, B4, B5, B6, B7, B8, B9, B10, B11, B12, B13, B14, B15, B16
